pKd: −log10 of the molar value.
Tested on: Tal7 (His-Tal7) (Xanthomonas oryzae pv. oryzicola RS105)
Assay: MST

Q: How did the pKd turn out when Os09g29100 promoter MST fragment was run?
A: 5.65

Q: Os12g42970 promoter MST fragment was tested. Which pKd did it give?
A: 5.53

Source: article PMC5505973
